The test deals with recombinant natriuretic peptide receptor B (NPR-B) (UniProt P20594). Kind of test: SPR; recombinant NPR-B immobilised on a CM5 chip by amine coupling (10 ug/mL, 10 mM sodium acetate pH 4.5); CBD-CNP injected at 1.25, 2.5, 5.0, 10 and 20 uM in 50 mM Tris HCl pH 7.5, 200 mM NaCl, 1 mM CaCl2; Biacore X; single-cycle kinetics, 1:1 Langmuir model.

We go through one substance from publication PMC12892892.

Chain of UniProt P20594 (P20594 23-458): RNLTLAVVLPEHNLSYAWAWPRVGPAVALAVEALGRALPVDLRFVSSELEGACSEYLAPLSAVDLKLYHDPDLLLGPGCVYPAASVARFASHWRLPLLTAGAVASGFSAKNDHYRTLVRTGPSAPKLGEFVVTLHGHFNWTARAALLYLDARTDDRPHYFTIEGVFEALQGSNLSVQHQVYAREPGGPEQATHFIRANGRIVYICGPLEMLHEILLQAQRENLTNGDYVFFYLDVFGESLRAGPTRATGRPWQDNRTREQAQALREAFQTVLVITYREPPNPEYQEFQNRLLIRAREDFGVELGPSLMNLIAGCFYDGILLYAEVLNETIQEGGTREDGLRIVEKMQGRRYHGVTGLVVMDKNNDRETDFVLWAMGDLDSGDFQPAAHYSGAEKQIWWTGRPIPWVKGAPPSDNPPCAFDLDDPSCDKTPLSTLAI

Broadly, the Kd is the concentration at which binding is half-saturated. On to “CBD-CNP (collagen-binding domain fused to C-type natriuretic peptide CNP-37) (from UniProt Q9X721 1003-1118)”, for which the Kd was 495 µM.
